Reference: patent US20090282582A1, “ENVIRONMENTAL STRESS RESPONSIVE PROMOTER AND METHOD OF TISSUE-SPECIFIC GENE EXPRESSION USING THE SAME” (RIKEN, priority 2006, published 2009)

Columns and labels:
[1] = tested on: transgenic Arabidopsis thaliana plant body (luciferase reporter gene); assay: luciferase assay of promoter::LUC transgenic plants after environmental stress application; format: in vivo; details: for Tissue allowing specific induction: summary over stress types
Experimental: Specifically, promoter regions were isolated from these genes, transgenic plants in which luciferase reporter genes were to be expressed under the control of such promoters were prepared, and tissue specificity of the promoters was inspected via luciferase assay.
In this example, DNA fragments containing promoter regions of the genes identified in Example 1 were recovered via PCR.
The nucleotide sequences of the amplified DNA fragments were determined in accordance with a conventional technique to confirm that mutagenesis, such as substitution or deletion, was not introduced thereinto. After the absence of mutagenesis was confirmed, the recovered DNA fragments were introduced into the vector for promoter analysis (i.e., a vector prepared by introducing the Gateway recombinant sequence (tradename: Gateway Vector Conversion System, Invitrogen) and the luciferase reporter gene into the pGreen vector (Plant Molecular Biology 42: 819-832, 2000)) using the Gateway recombination system to construct a recombinant vector.
The recombinant vector prepared in (1) above was introduced into a plant via Agrobacterium infection. When a gene is introduced via Agrobacterium infection, a process of infecting a plant with Agrobacterium containing a plasmid comprising the target gene construct is necessary. This process was carried out via vacuum infiltration. Specifically, a plant body of Arabidopsis thaliana that had been grown in soil comprising vermiculite and an equivalent amount of pearlite was soaked in a culture solution of Agrobacterium containing the recombinant vector prepared in (1). The resultant was placed in a desiccator, suctioned with a vacuum pump to 65 to 70 mmHg, and then allowed to stand at room temperature for 5 to 10 minutes. The pot was transferred onto a tray, covered with a wrap, and kept moistened. The wrap was removed on the following day, the plant was allowed to grow in that state, and seeds were then harvested.
Subsequently, seeds were sown on MS agar medium to which antibiotic hygromycin has been added in order to select an individual having the recombinant vector prepared in (1). Arabidopsis thaliana that had been grown in this medium was transferred to a pot and allowed to grow therein. Thus, seeds of transgenic plants to which the recombinant vector prepared in (1) has been introduced were obtained.
The seeds of the transgenic plant lineage prepared in (2) were sowed on MS agar medium. The plant body 10 days after sowing was used for luciferase assay.
At the outset, 1 mM luciferin (containing 0.01% Triton-X) was sprayed over the entire plant body 5 times. After the plant body was allowed to stand in the dark for 5 minutes, luciferase luminescence was assayed using ARGUS (assay after treatment for 0 hours). Subsequently, various types of environmental stresses were applied (see below). Low-temperature stress application was carried out by introducing a plate containing a plant body into a low-temperature chamber (4° C.). Dehydration stress application was carried out by capturing the plant body with forceps while refraining from damaging the plant body, roughly removing moisture from the plant body on a Kim Towel, placing the plant body on another plate, placing the plate in a clean bench while leaving the lid open, letting it stand for 2 hours, and then closing the lid. Salt stress application was carried out by dispensing a mixture of MS medium (containing 1% sucrose, 0.1% agar, and 1 mM luciferin) with 250 mM NaCl to the roots of the plant bodies (200 μl per plant body) using a Pipetman. ABA stress application was carried out by dispensing a mixture of MS medium (containing 1% sucrose, 0.1% agar, and 1 mM luciferin) with 100 μM ABA to the roots of the plant bodies (200 μl per plant body) using a Pipetman.
Luciferase luminescence was assayed 2, 5, and 10 hours after the above various types of environmental stresses had been applied using the ARGUS system (Hamamatsu Photonics). […]

[2] = tested on: Arabidopsis thaliana (columbia ecotype) plant body; assay: full-length cDNA microarray analysis of gene expression levels after environmental stress application; details: in vivo
Experimental: In this example, the gene expression levels at the time of application of various types of environmental stresses were analyzed using microarrays. Specifically, the microarrays described in Seki et al., “Monitoring the expression profiles of 7000 Arabidopsis genes under drought, cold, and high-salinity stresses using a full-length cDNA microarray,” Plant J. 31: 279-292, 2002, were used, and analysis was carried out in accordance with the method similar to the method described therein. Various types of environmental stresses were applied to a plant body under the following conditions. Specifically, low-temperature stress application was carried out by introducing a plate containing a plant body into a low-temperature chamber (4° C.). Dehydration stress application was carried out by capturing the plant body with forceps while refraining from damaging the plant body, roughly removing moisture from the plant body on a Kim Towel, placing the plant body on another plate, placing the plate in a clean bench while leaving the lid open, letting it stand for 2 hours, and then closing the lid. Salt stress application was carried out by dispensing a mixture of MS medium (containing 1% sucrose, 0.1% agar, and 1 mM luciferin) with 250 mM NaCl to the roots of the plant bodies (200 μl per plant body) using a Pipetman. ABA stress application was carried out by dispensing a mixture of MS medium (containing 1% sucrose, 0.1% agar, and 1 mM luciferin) with 100 μM ABA to the roots of the plant bodies (200 μl per plant body) using a Pipetman. As a plant body to which environmental stress is to be applied, Arabidopsis thaliana (columbia ecotype), which had been cultivated on a germination medium containing Murashige and Skoog Salt, 3% sucrose, and […] for 3 weeks, was used. Cultivation conditions were determined so as to maintain the temperature in the chamber at 22° C. with a 16-hour light period and an 8-hour dark period. Total RNA was extracted from plant bodies after environmental stress application or from plant bodies to which no environmental stress had been applied using the TRIZOL Reagent (Life Technologies), and mRNA was extracted using the mRNA isolation kit (Militenyi Biotec Auburn). In accordance with the method described in the above article, mRNA samples were reversely transcribed in the presence of Cy3 dUTP or Cy5 dUTP (Amersham Pharmacia). Microarray analysis was carried out using cDNAs obtained via reverse transcription. Data obtained via microarray analysis were analyzed using the Quantarray Version 2.0 (GSI Lumonics).

| Molecule | Tissue in which specific induction of expression is realized ([1]; ABA stress (100 μM ABA)) | Tissue in which specific induction of expression is realized ([1]; ABA stress (100 μM ABA), listed as promoter of RAFL05-20-M16) | time after stress application at which activity to induce gene expression is exhibited ([1]; ABA stress, root tissue) | Tissue in which specific induction of expression is realized ([1]; Dehydration stress) | time after stress application at which activity to induce gene expression is exhibited ([1]; Dehydration stress) | Tissue in which specific induction of expression is realized ([1]; Dehydration stress, listed as promoter of RAFL05-20-M16) | Tissue allowing specific induction [1] | Environmental stress type to which the promoter responds [2] | Tissue in which specific induction of expression is realized ([1]; ABA stress (100 μM ABA), listed as promoter of RAFL05-17-B13) | Tissue in which specific induction of expression is realized ([1]; Dehydration stress, listed as promoter of RAFL05-17-B13) | Tissue in which specific induction of expression is realized ([1]; Low temperature stress (4° C.)) | Tissue in which specific induction of expression is realized ([1]; Low temperature stress (4° C.), listed as promoter of RAFL05-17-B13) | Tissue in which specific induction of expression is realized ([1]; Salt stress (250 mM NaCl)) | Tissue in which specific induction of expression is realized ([1]; Salt stress (250 mM NaCl), listed as promoter of RAFL05-17-B13) |
| --- | --- | --- | --- | --- | --- | --- | --- | --- | --- | --- | --- | --- | --- | --- |
| Promoter of RAFL05-20-M16: environmental stress responsive promoter DNA, SEQ ID NO: 3, upstream of At2g46680 (ATHB7 transcription factor) | Root tissue | root tissue | about 2 hours | Root tissue | about 10 hours | root tissue | Stem and leaf tissue and root tissue | Dehydration and salt |  |  |  |  |  |  |
| Promoter of RAFL05-17-B13: environmental stress responsive promoter DNA, SEQ ID NO: 1, upstream of At1g01470 (LEA protein) (nucleic acid, listed as Arabidopsis thaliana) DNA: CCGCCAACTACCAACACCGACATATGTGCTTTCGGCAGTTTTGATATCATTCCAAAATTTCAATTATTATTTATCAAATTTATTTTCTTGGTAAAAGTTTAATTAATTTCAATTATTTGAATGTCTTAATTCACTGATTACAAATTATATATGTAATATATACATAACAATTTCGTTCGTGGAGTGTTATTATACTCCTTAAGCGAATCTGTATATTTTAAATAAAATTTTGATTTATGCACACGTACATGTTCAATTGAAACGTTTTCCCTAACTATAGATGCCAATAAATAATAAGTTGATTTTTAAAATGTACAAAACAAAAGGTACCGTTTTGTAAAATTTTGCAACCAAAAAGTACAATCGGCCGTTGAAAATCGTGGAACCAAACACTAATTAAAGAGAAGTGTGAATATAATCTAGTGTTTGCGGATTTATATTATAAAATTTGTGTATCACTAAAATGTCAAAGCATGCTTTGACTGGTCAATAAGTCAAATTAACTAACAAACCATGCGAGGCGTAGGTTTGACTTCTTAACATAAATGCTGACTCAGTTTTTCCATTCCGCAGCTGTCGACTAATTGGACACGCTTCTTCCAATCCCTTTCCACTAATCATCCATCAACACGTGACATGCCTACAGTGCACGACTTCACAGTGATCATGTCAAAGTTTTGTTTTTAAGAGAAGAAGATTCACGACTTCACAGTGATCATAGTCCAGTTACAAATTTGAATGGGCTTATGGCCTGTGGCCCATTTAAGTTTGACCTTAATATCCATCAGAAACCCATACCAATACGGGTCATAAGTGCATTGTCCATATAGTGTACCGCAATGCATGGGAGTACTACTACATTCCACCGACGTGCATATGGGGGGACATGGTCGGTCCATTAATCCCTTGCGCATCTTATTCCTTACGCGAATACTTTTCCCTCTTTTAGTTTTGTATAATACTTTCCATTTTTTTGGTATTAAATTTATCGTGTGACTATCTAAAAAGGTATTTAATTATCTAGTTTAGCTATAACTGCAAACAAAATATCTATTTTCATGAATGATATATTTTTGAAATAAAATATTGTTGTCATGTAACGAAAAAATCAAAAATCAAGCAGAAGACACGTATAACCCACGCTTTCACTCTCACTCGTGGAAAACCCTCACACGTACACAAACCATTATAAAATTTAATCCATTTACATCGACCGACTTCATAAGAACATCGTAATCCCATCCGTTTATATATATATTCCAAGTTAAACTTCATATCATACACACAAACCTAAAACACCGAAACAAAAACAAAGAGATTTAAACAAGAAGAGTTATT | Stem and leaf tissue (weak) |  |  | Stem and leaf tissue and root tissue |  |  | Stem and leaf tissue and root tissue | Dehydration and salt | weak gene expression in stem and leaf tissue | stem and leaf tissue and root tissue | Stem and leaf tissue | stem and leaf tissue | Stem and leaf tissue | stem and leaf tissue |
